Assay results: US20250221936A1, “ENGINEERED HEMICHANNELS, ENGINEERED VESICLES, AND USES THEREOF” (VIRGINIA TECH INTELLECTUAL PROPERTIES, INC., priority 2018, published 2025)

Experiments:
[1] = target: T1, Cx43 CT-KK/QQ (Rattus norvegicus, UniProt P08050, K345Q/K346Q); experiment: Surface plasmon resonance, Cx43 CT-KK/QQ analyte; assay type: binding; conditions: biotin-peptide immobilized on streptavidin chip
T1 construct: pGEX-6-P2 Cx43 CT amino acids 255-382; GST (N, cleaved yes); made in house; host or cells: E. coli BL21
Description: Peptides were synthesized and quality checked for fidelity and purity using High Performance Liquid Chromatography and mass spectrometry (LifeTein, Hillsborough, NJ). Biotinylated peptides were designed for surface plasmon resonance experiments. Glutathione-S-Transferase (GST) fusion protein constructs composed of the Cx43-CT (pGEX-6-P2 Cx43 CT amino acids 255-382), ZO-1 PDZ1, PDZ2 and PDZ3 were isolated and purified from isopropyl-b-D-thiogalactoside (IPTG)-induced BL21 bacteria using standard procedures, described in references 13, 14, 20. The pGEX6p2-Cx43 CT plasmid was obtained from Prof. Paul L. Sorgen (University of Nebraska Medical Center, USA). Cx43 CT mutant (Cx43 CT-KK/QQ; amino acids Lys345 Lys346 to Gln 345 Gln 346) was developed by site-directed mutagenesis of the pGEX6p2-Cx43 CT plasmid (Agilent technologies, QuikChange II Site-Directed Mutagenesis Kit). The mutation was verified by sequencing. For surface plasmon resonance experiments, the GST was removed using PreScission protease, yielding Cx43 CT protein (wild-type or mutant).
Efficacy of the interaction of each alpha CT1 variant with Cx43 CT or Cx43 CT-KK/QQ was tested using surface plasmon resonance (SPR) as described previously 20. In brief, SPR experiments were performed using a Biacore T200 (GE Healthcare). Equal amounts (response units/RU) of biotin-alpha CT1 variants were immobilized on each flow cell of a streptavidin-coated sensor chip (Biacore Inc) using immobilization buffer (in mM: 10 HEPES, 1 EDTA, 100 NaCl, 0.005% Tween-20) at pH 7.4. Measurements with wild-type (wt) Cx43 CT and mutant Cx43 CT-KK/QQ analytes were done in running buffer (in mM: 10 HEPES, 100 NaCl, pH 7.4) at a flow rate of 30 μl/min. Binding of analytes were verified at different concentrations, in random order (injection volume 120 μl). Interacting proteins were then unbound by injection of […] regeneration buffer (50 mM NaOH and 1 M NaCl) at a flow rate of 10 μl/min. Background levels were obtained from a reference cell containing a biotin-control peptide in which the reversed sequence of the last 9 amino acids of Cx43 was fused to biotin-antennapedia. The RU values obtained with biotin-control peptide were subtracted from the RU values obtained with the different biotin-alphaCT1 variants (wild-type or mutant) to generate the different response curves.

[2] = target: T2, PKC-ε phosphorylation of Cx43-CT substrate at Ser368 (Rattus norvegicus, UniProt P08050); experiment: PKC-ε Cx43 CT S368 phosphorylation assay; assay type: biochemical; conditions: peptides at 20 μM
T2 construct: substrate (Cx43-CT: amino acids 255 to 382); GST (N); made in house; host or cells: E. coli BL21 (Cx43 CT); PKC-ε purchased (Life, 37717L)
Protocol: PKC assay conditions were used to evaluate the PKC-ε phosphorylation of Cx43-CT substrate at Ser368 as we have described previously, with modifications 11. 400 ng/ml […] (Life, 37717L, Carlsbad, CA) was pre-diluted in enzyme dilution buffer (10 mM HEPES pH7.4, 0.01% CHAPS and 5 mM DTT) and assayed in 20 mM HEPES pH7.4, 10 mM/L MgCl2, 0.1 mM EGTA, 1× lipid mix (200 μg/ml phosphatidylserine (Avanti Polar Lipids 840032C),^20 μg/ml Diacylglycerol (Avanti Polar Lipids), 1 mM HEPES pH7.4, 0.03% CHAPS), 500 µM ATP (Sigma, A6419) and 14 μg/ml Cx43-CT substrate. Kinase assay buffer was supplemented with peptides to produce final concentrations of the reaction constituents, as indicated in figure legends. The mixture was incubated at 37° C. for 12 minutes and quenched by addition of LDS sample loading buffer (Bio Rad, 1610791). “XT sample buffer” is what was shown on the product label, whereas the component is similar as regular LDS buffer, containing about 5-10% lithium dodecyl sulphate. The reaction was Western blotted for pS368 Cx43 using the Phospho-Connexin43 (Ser368) antibody from Cell Signaling. Proteins were eluted off by stripping buffer (Millipore 2504) and re-probed for total Cx43 using the Sigma anti-rabbit antibody. Percent phosphorylation (% P) was quantified using Equation 1 and normalized with control group (PKC+, no peptide added).

[3] = target: T3, Cx43 CT (Rattus norvegicus, UniProt P08050); experiment: Protein thermal shift assay, Cx43 CT; assay type: binding; conditions: 500 μg/ml protein, 25-100 μM peptide
T3 construct: CT: amino acids 255 to 382) alone; GST (N); made in house; host or cells: E. coli BL21
Protocol: Thermal stability of recombinant GST-PDZ2 or Cx43 CT in the presence or absence of peptides was determined in a 96-well format. Each assay well was composed of 500 μg/ml protein, 25-100 μM of each peptide in PBS buffer, pH7.4. All assays were performed independently six times. Samples were generally prepared in 96-well plates at final volumes of 20 μL. The fluorescent dye SYPRO Orange (5000× concentrate in DMSO, ThermoFisher, S6650) was added to a final concentration of 8X. Reactions were run on QuantStudio 6 Flex Real-Time PCR system (Applied Biosystems, part of Life Technologies Corporation, CA) according to the manufacturer's recommendations using a melt protocol in 0.05-degree/see increments from 25° C. to 95° C. The Reporter Dye was “ROX” and quencher Dye and passive reference were selected as “None” for the melt curve according to manufacturer's instructions. The data were analyzed using Protein Thermal Shift™ Software v1.3 package (Applied Biosystems, CA).

T2 sequence (P08050 255-382): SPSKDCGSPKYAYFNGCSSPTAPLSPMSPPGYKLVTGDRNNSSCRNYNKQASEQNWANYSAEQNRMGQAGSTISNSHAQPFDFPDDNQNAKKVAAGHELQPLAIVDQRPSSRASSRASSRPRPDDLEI
T3 sequence (P08050 255-382): as above
T1 sequence (P08050 255-382 K345Q/K346Q): as the sequence (P08050 255-382) above, with K91Q, K92Q counted along it

| Sequence | SPR binding to Cx43 CT-KK/QQ [1] | Cx43 S368 phosphorylation [2] | Cx43 CT melt temperature (Tm) [3] | ability to induce S368 phosphorylation ([2]; greater than PKC ε+plus control, M1 AALAI or M4) |
| --- | --- | --- | --- | --- |
| RQPKIWFPNRRKPWKK RPRPAALAI (RQPKIWFPNRRKPWKKRPRPAALAI) [M1 AALAI] | unable mediate interactions | neither M1 AALAI (SEQ ID NO: 134), M2 AALEI (SEQ ID NO: 135) nor M3 DDLAI (SEQ ID NO: 136) increased Cx43 S368 phosphorylation | no propensity to alter Cx43 CT thermal stability | – |
| RQPKIWFPNRRKPWKKRPRPDDLAI [M3 DDLAI] | unable mediate interactions | neither M1 AALAI (SEQ ID NO: 134), M2 AALEI (SEQ ID NO: 135) nor M3 DDLAI (SEQ ID NO: 136) increased Cx43 S368 phosphorylation | no propensity to alter Cx43 CT thermal stability | – |
| RQPKIWFPNRRKPWKKRPRPDDLE [alpha CT1-I] | – | significant increase in PKC ε-mediated phosphorylation of Cx43 CT | highly significant decreases in melt temperature | – |
| RQPKIWFPNRRKPWKKRPRPDDLEI [alpha CT1] | unable mediate interactions | – | highly significant decreases in melt temperature | about 3 fold |
